We go through three molecules from publication PMC7199964, “Grifolin, neogrifolin and confluentin from the terricolous polypore Albatrellus flettii suppress KRAS expression in human colon cancer cells”.

Data set [1] has as its target T1, IMP1 wild type (UniProt Q9NZI8 1-577). Description: EMSA; IMP1 0-540 nM; smallest region with affinity; FP: 300 nM IMP1, 10 nM probe (inhibitor assays), binding buffer stock 50 mM Tris-Cl pH 7.4, 12.5 mM EDTA pH 8, 25% glycerol, 0.01% Triton-X, 37 C 30 min; EMSA:
The following applies: protein: recombinant; (radiolabeled). Background: A gel shift assay detects complexes by their altered migration in electrophoresis.

A further data set has as its target KH3&4 IMP1 (KH34) (UniProt Q9NZI8 405-553). The experiment in a line: fluorescence polarization; confluentin, no effect; FP: 300 nM IMP1, 10 nM probe (inhibitor assays), binding buffer stock 50 mM Tris-Cl pH 7.4, 12.5 mM EDTA pH 8, 25% glycerol, 0.01% Triton-X, 37 C 30 min; EMSA:
The following applies: protein: recombinant; label: 3' 6-FL (fluorescein). On the technique in general: Polarisation of emitted light reports the rotation of a fluorescent probe.

Data set [2] addresses T1, IMP1 wild type. Description: fluorescence polarization; grifolin up to 100 uM, no effect; FP: 300 nM IMP1, 10 nM probe (inhibitor assays), binding buffer stock 50 mM Tris-Cl pH 7.4, 12.5 mM EDTA pH 8, 25% glycerol, 0.01% Triton-X, 37 C 30 min; EMSA:
The following applies: protein: recombinant; label: 3' 6-FL (fluorescein).

The next data set has as its target KH1to4 IMP1 (UniProt Q9NZI8 195-553). The experiment in a line: fluorescence polarization; FP: 300 nM IMP1, 10 nM probe (inhibitor assays), binding buffer stock 50 mM Tris-Cl pH 7.4, 12.5 mM EDTA pH 8, 25% glycerol, 0.01% Triton-X, 37 C 30 min; EMSA:
The note with it: protein: recombinant; label: 3' 6-FL (fluorescein).

Data set [3] addresses T1, IMP1 wild type. The description is as above. The following applies: protein: recombinant; label: 3' 6-FL (fluorescein).

T1 sequence (Q9NZI8 whole entry): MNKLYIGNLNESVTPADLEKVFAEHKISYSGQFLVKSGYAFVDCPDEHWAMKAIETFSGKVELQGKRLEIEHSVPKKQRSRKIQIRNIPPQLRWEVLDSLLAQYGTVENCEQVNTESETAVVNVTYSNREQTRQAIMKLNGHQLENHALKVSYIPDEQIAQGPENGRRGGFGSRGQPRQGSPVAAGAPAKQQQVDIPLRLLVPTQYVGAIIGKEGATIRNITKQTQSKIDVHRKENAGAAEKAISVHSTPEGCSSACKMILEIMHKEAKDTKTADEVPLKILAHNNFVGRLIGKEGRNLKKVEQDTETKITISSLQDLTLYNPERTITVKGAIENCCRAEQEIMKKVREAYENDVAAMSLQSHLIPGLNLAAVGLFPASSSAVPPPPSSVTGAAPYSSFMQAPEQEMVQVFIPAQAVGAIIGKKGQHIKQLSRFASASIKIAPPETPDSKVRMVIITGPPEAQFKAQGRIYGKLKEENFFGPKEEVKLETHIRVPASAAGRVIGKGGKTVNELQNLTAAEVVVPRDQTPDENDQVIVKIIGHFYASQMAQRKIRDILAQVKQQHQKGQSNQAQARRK
Sequence of KH3&4 IMP1 (KH34) (Q9NZI8 405-553): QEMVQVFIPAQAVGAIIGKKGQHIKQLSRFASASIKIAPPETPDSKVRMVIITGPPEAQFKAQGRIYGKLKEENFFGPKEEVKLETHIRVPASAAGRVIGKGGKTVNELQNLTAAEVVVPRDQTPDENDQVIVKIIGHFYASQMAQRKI
Sequence of KH1to4 IMP1 (Q9NZI8 195-553): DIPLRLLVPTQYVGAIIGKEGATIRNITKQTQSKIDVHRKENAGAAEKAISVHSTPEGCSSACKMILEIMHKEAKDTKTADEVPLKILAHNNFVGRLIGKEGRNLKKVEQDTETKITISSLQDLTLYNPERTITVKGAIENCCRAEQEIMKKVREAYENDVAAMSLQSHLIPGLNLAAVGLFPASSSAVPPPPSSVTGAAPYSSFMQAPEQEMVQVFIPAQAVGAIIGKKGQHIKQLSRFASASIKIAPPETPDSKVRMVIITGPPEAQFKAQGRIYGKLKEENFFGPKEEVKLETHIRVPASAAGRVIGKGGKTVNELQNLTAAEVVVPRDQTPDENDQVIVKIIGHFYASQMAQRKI

With GAAACCUGUCUCUUGGAUAUUCUCGACACAGCAGGUCAU (ssRNA) [39-nt KRAS RNA nts 147-185], in the data set with IMP1 wild type [1], the binding result was “binds”.
In the case of AUGGAGAAACCUGUCUCUUGGAUAUUCUCGACACAGCAGGUCAU (ssRNA) [44-nt KRAS RNA (nts 142-185)], the binding result with KH3&4 IMP1 (KH34), in the data set with IMP1 wild type [2] and in the data set with KH1to4 IMP1 was “binds” throughout.
On to AAAUUAGGGCCCAAUUAAUAAUCAGCAAGAAUUUGAUCG (ssRNA) [39-nt CD44 RNA (nts 2862-2900)], for which the binding result in the data set with IMP1 wild type [3] is “binds”.
